Data on 6 molecules can be found in US20050002900A1, “Method of treating estrogen responsive breast cancer” (priority 2001, published 2005).

One assay has as its system human adipocytes. The assay is described as follows: Estradiol production by cultured human adipocytes (Active Estradiol EIA kit). Format: cell-based. The note with it: for estradiol amount: cytokine alone at increasing concentrations. On the procedure: (§1) Human subcutaneous cultured adipocytes and preadipocytes, catalog nos. SP-1012, SP-1024, SP-1096, SP-75, or SP-25 were purchased from Zen-Bio, Inc. (Research Triangle Park, N.C.) and cultured according to the manufacturer's instructions.
The culture medium of the preadipocytes was supplemented with 0.1 μg/ml IFN-γ and increasing concentrations of either TNF-α or TNF-β as shown in FIG. 1. Estradiol concentrations were measured using the Active™ Estradiol EIA kit according to the manufacturer's instructions (catalog no. DSL-10-4300, Diagnostic Systems Laboratories, Inc., Webster, Tex.).
(§2) The isolated human adipocytes were also treated with different interferon family members: IFN-α, -β, and -γ.

The subject of another assay is aromatase mRNA. The assay can be described thus: RT-PCR of aromatase mRNA in cultured adipocytes. The following applies: for expression of aromatase mRNA in human adipocytes: interferon alone, endogenous expression, FIG. 3; for transcription of aromatase mRNA: cytokine alone compared to untreated control. Format: cell-based, human. On the procedure: as §1
Adipocyte cultures were treated with IL-1-β, IFN-γ, TNF-α, and combinations of IL-1-β and IFN-γ and TNF-α and IFN-γ. Consequently, total RNA from cultured adipocytes was isolated using conventional methods. The reverse transcriptase polymerase chain reaction (RT-PCR) was performed using aromatase specific primers. The amplified aromatase cDNA fragments produced by RT-PCR were separated on an agarose gel. […] The estradiol production by the cells is shown as pikograms/ml (pg/ml) below the photograph of the gel showing the aromatase mRNA levels.
as §2

On to IFN-α, for which the “estradiol production increase upon interferon induction” value in the assay with human adipocytes (interferon alone, FIG. 3) was “about 6 fold”. Moreover, the “expression of aromatase mRNA in human adipocytes” value in the assay on aromatase mRNA is “significantly increased”.

With IL-1β: interleukin-1β, the “transcription of aromatase mRNA” value in the assay with aromatase mRNA (FIG. 2) is given as “induced”.

On to TNF-α, for which, in the assay with human adipocytes (FIG. 1), the estradiol amount result is listed as “significantly increased”. For the same molecule, the “transcription of aromatase mRNA” value with aromatase mRNA (FIG. 2) was “induced”.

B1: IFN-γ: interferon gamma, added at 0.1 μg/ml to adipocyte culture medium (protein, UniProt P01579 24-161, looked up)
Interferon gamma: QDPYVKEAENLKKYFNAGHSDVADNGTLFLGILKNWKEESDRKIMQSQIVSFYFKLFKNFKDDQSIQKSVETIKEDMNVKFFNSNKKKRDDFEKLTNYSVTDLNVQRKAIHELIQVMAELSPAAKTGKRKRSQMLFRG
Turning to B1, the “TNF-α induced estradiol production” value in the assay with human adipocytes (0.1 μg/ml IFN-γ, increasing concentrations of TNF-α, FIG. 1) is listed as “inhibits”. Further, in the assay on human adipocytes (0.1 μg/ml IFN-γ, increasing concentrations of TNF-β, FIG. 1), the “TNF-β induced estradiol production” value is recorded as “inhibits”. The estradiol production result in the assay with human adipocytes (IFN-γ alone, FIG. 3) is “blocked completely”. In the assay on aromatase mRNA (given together with IL-1β, FIG. 2), the “transcription of aromatase mRNA induced by IL-1β” value was “inhibits”. Further, the “transcription of aromatase mRNA induced by TNFα” value with aromatase mRNA (given together with TNFα, FIG. 2) was “inhibits”. The “expression of aromatase mRNA in human adipocytes” value with aromatase mRNA was “inhibits”.

B2: TBP: soluble TNF binding protein, TNF-R1, as described in U.S. Pat. No. 6,225,300 (protein, UniProt P19438 30-211, looked up)
extracellular domain: LVPHLGDREKRDSVCPQGKYIHPQNNSICCTKCHKGTYLYNDCPGPGQDTDCRECESGSFTASENHLRHCLSCSKCRKEMGQVEISSCTVDRDTVCGCRKNQYRHYWSENLFQCFNCSLCLNGTVHLSCQEKQNTVCTCHAGFFLRENECVSCSNCKKSLECTKLCLPQIENVKGTEDSGTT
modifications: extracellular domain
In the case of B2, the “TNF-α induced estradiol production” value in the assay with human adipocytes (TNF-α at varying concentrations plus TBP, FIG. 4) is recorded as “completely blocked”. Also, in the assay on human adipocytes (TNF-β at varying concentrations plus TBP, FIG. 4), the “TNF-β induced estradiol production” value was “completely blocked”.

B3: TNF-β: tumor necrosis factor beta (protein, UniProt P01374 35-205, looked up)
Lymphotoxin-alpha: LPGVGLTPSAAQTARQHPKMHLAHSTLKPAAHLIGDPSKQNSLLWRANTDRAFLQDGFSLSNNSLLVPTSGIYFVYSQVVFSGKAYSPKATSSPLYLAHEVQLFSSQYPFHVPLLSSQKMVYPGLQEPWLHSMYHGAAFQLTQGDQLSTHTDGIPHLVLSPSTVFFGAFAL
On to B3, for which the estradiol amount entry in the assay on human adipocytes (FIG. 1) was “significantly increased”.
